Measurements taken from publication PMC10703879 (2023).

T1: BCMAECD-Fc (dimerized, Fc-tagged human BCMA extracellular domain) (human, UniProt Q02223-1 1-54, not fully specified)
T1 chain: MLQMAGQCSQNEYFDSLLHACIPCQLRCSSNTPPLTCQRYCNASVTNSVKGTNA

T2: BCMAECD-His (monomeric, His-tagged human BCMA extracellular domain) (human, UniProt Q02223-1 1-54)
T2 chain: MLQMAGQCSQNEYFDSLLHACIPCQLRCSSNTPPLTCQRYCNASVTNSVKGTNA


Experiments:
[1] = target: T1, BCMAECD-Fc (dimerized, Fc-tagged human …); assay: SPR
[2] = target: T2, BCMAECD-His (monomeric, His-tagged …); assay: SPR

Row | Binder | koff [1] | koff [2]
1 | Nb2 (anti-BCMA nanobody 2 of the cilta-cel CAR) (VHH) VHH: EVQLVESGGGLVQAGGSLRLSCAASGRTFTMGWFRQAPGKEREFVAAISLSPTLAYYAESVKGRFTISRDNAKNTVVLQMNSLKPEDTALYYCAADRKSVMSIRPDYWGQGTQVTVSS | 0.0108 s⁻¹ | 0.0264 s⁻¹
2 | Nb1 (anti-BCMA nanobody 1 of the cilta-cel CAR) (VHH) VHH: QVKLEESGGGLVQAGRSLRLSCAASEHTFSSHVMGWFRQAPGKERESVAVIGWRDISTSYADSVKGRFTISRDNAKKTLYLQMNSLKPEDTAVYYCAARRIDAADFDSWGQGTQVTVSS | 2.94e-05 s⁻¹ | 6.52e-05 s⁻¹
